Results on eight molecules are retold here after US20190135918A1 (ICHNOS SCIENCES, published 2019).

The target of experiment [1] is human CD38 on cells (human, UniProt P28907 1-300). Kind of experiment: cell-based or functional assay.
Experiment [2] addresses T1, human CD3 epsilon on cells (human, UniProt P07766 23-207).
T1 construct: whole, on cells; On cells it stands in the CD3/TCR complex; also called HPB-ALL cells (human CD3 epsilon positive T cell tumour line); CD3 on human T cells
The experiment can be described thus: FACS staining of HPB-ALL cells, scFv-Fc format, graded relative to chimeric OKT3.

Experiment [3] deals with T2, human CD3 epsilon 1-26_Fc fusion protein (human).
T2 construct: also called human CD3 1-26_Fc fusion protein
Kind of experiment: SPR, CD3 epsilon 1-26 Fc coupled to the chip, antibody injected. Background: SPR reads the build-up and loss of mass on a sensor chip optically.

Experiment [4] addresses T3, soluble extracellular region of cynomolgus monkey CD38 antigen fused to a 6-His-tag (cynomolgus monkey, UniProt Q5VAN0 45-301).
T3 construct: also called cynomolgus CD38
The experiment can be described thus: SPR (summary table, row 'KD cynomolgus monkey CD38 (nM)').

Experiment [5] has as its target T4, Protein A (Staphylococcus aureus, UniProt P38507 37-327).
T4 construct: Resin ligands (MabSelect, MabSelect SuRe) are recombinant or engineered forms; also called protein A chromatography
The experiment can be described thus: protein A affinity chromatography, eluate (A) and flow-through (A ft) on non-reducing SDS-PAGE.

Experiment [6] deals with T5, Protein G (UniProt P06654 228-352).
T5 construct: also called protein G chromatography
T5 sequence (P06654 228-352): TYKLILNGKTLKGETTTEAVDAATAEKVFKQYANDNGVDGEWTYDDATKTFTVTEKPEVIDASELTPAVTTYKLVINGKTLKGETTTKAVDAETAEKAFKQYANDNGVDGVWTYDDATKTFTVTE
The experiment can be described thus: protein G affinity chromatography, eluate (G) and flow-through (G ft) on non-reducing SDS-PAGE.

Experiment [7] concerns the target T6, F3 (peptide-Fc fusion derived from the extracellular domain of human CD38) (human, UniProt P0DOX5 223-449 = IgG part).
T6 construct: As F1; by count CD38 residues 69-81; also called F3 construct
Kind of experiment: SPR, SAR650984 on the chip, peptide-Fc fusion injected.

Experiment [8] deals with T7, F6 (peptide-Fc fusion derived from the extracellular domain of human CD38) (human, UniProt P0DOX5 195-449 = IgG part).
T7 construct: As F1; by count CD38 residues 108-120 (holds M110)
Kind of experiment: SPR.

B1: BEAT CD38-9G7Mouse/CD3 (bispecific antibody, human IgG1, kappa, L234A L235A)
heavy: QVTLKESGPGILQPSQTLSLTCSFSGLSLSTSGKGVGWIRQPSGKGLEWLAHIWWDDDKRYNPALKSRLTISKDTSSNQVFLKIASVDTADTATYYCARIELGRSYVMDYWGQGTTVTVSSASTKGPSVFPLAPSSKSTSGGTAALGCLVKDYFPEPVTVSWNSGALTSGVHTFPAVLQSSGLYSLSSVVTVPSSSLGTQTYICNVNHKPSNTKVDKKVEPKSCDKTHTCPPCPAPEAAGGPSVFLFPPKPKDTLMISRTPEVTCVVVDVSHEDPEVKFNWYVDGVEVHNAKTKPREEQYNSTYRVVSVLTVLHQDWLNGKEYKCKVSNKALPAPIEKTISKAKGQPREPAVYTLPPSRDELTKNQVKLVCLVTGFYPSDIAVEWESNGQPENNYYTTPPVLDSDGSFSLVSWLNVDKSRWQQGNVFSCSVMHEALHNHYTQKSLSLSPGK
light: DIVMTQSHKFMSTSVGDRVSISCKASQDVITSVAWFQQKPGQSPKLLIYSASYRYTGVPDRFTGSGSGTDFTFTISSVQAEDLAVYYCQQHYTIPLTFGAGTKLELKRTVAAPSVFIFPPSDEQLKSGTASVVCLLNNFYPREAKVQWKVDNALQSGNSQESVTEQDSKDSTYSLSSTLTLSKADYEKHKVYACEVTHQGLSSPVTKSFNRGEC
chain: EVQLVESGGGLVQPGGSLRLSCAASGYTFTRYTMHWVRQAPGKGLEWIGYINPSRGYTYYADSVKGRFTLSTDKSKNTAYLQMSSLRAEDTAVYYCARYYDDHYCLDYWGQGTLVTVSSGGGGSGGGGSGGGGSDIQLTQSPSSLSASVGDRVTITCRASSSVSYVAWYQQKPGKAPKRWIYDTSKLYSGVPSRFSGSGSGTDYTLTISSLQPEDFATYYCQQWSSNPPTFGQGTKVEIKGGGGTDKTHTCPPCPAPEAAGGPSVFLFPPKPKDTLMISRTPEVTCVVVDVSHEDPEVQFKWYVDGVEVHNAKTKPREEQYNSTFRVVSVLTVLHQDWLNGKEYKCKVSNKALPAPIEKTISKTKGQPREPEVATFPPSREEMTKNQVTLVCLVTGFYPSDIAVEWESSGQPENNYNTDPPLLESDGSFALSSRLRVDKSRWQQGNIFSCSVMHEALHNRFTQKSLSLSPGK
B1: the “killing assay against Daudi cells, flow cytometry readout, EC50 (pM)” value in experiment [1] is 3.2 pM.

B2: BEAT CD38-OKT10Mouse/CD3 (bispecific antibody, human IgG1, kappa, L234A L235A)
heavy: QVELVESGGSLKLSCAASGFDFSRSWMNWVRQAPGKGLEWIGEINPDSSTINYTTSLKDKFIISRDNAKNTLYLQMTKVRSEDTALYYCARYGNWFPYWGQGTLVTVSSASTKGPSVFPLAPSSKSTSGGTAALGCLVKDYFPEPVTVSWNSGALTSGVHTFPAVLQSSGLYSLSSVVTVPSSSLGTQTYICNVNHKPSNTKVDKKVEPKSCDKTHTCPPCPAPEAAGGPSVFLFPPKPKDTLMISRTPEVTCVVVDVSHEDPEVKFNWYVDGVEVHNAKTKPREEQYNSTYRVVSVLTVLHQDWLNGKEYKCKVSNKALPAPIEKTISKAKGQPREPAVYTLPPSRDELTKNQVKLVCLVTGFYPSDIAVEWESNGQPENNYYTTPPVLDSDGSFSLVSWLNVDKSRWQQGNVFSCSVMHEALHNHYTQKSLSLSPGK
light: DILMTQSQKIMPTSVGDRVSVTCKASQNVDTNVAWYQQKPGQSPKALIYSASYRYSGVPDRFTGSGSGTDFTLTITNVQSEDLAEYFCQQYDSYPLTFGAGTKLDLKRTVAAPSVFIFPPSDEQLKSGTASVVCLLNNFYPREAKVQWKVDNALQSGNSQESVTEQDSKDSTYSLSSTLTLSKADYEKHKVYACEVTHQGLSSPVTKSFNRGE
chain: EVQLVESGGGLVQPGGSLRLSCAASGYTFTRYTMHWVRQAPGKGLEWIGYINPSRGYTYYADSVKGRFTLSTDKSKNTAYLQMSSLRAEDTAVYYCARYYDDHYCLDYWGQGTLVTVSSGGGGSGGGGSGGGGSDIQLTQSPSSLSASVGDRVTITCRASSSVSYVAWYQQKPGKAPKRWIYDTSKLYSGVPSRFSGSGSGTDYTLTISSLQPEDFATYYCQQWSSNPPTFGQGTKVEIKGGGGTDKTHTCPPCPAPEAAGGPSVFLFPPKPKDTLMISRTPEVTCVVVDVSHEDPEVQFKWYVDGVEVHNAKTKPREEQYNSTFRVVSVLTVLHQDWLNGKEYKCKVSNKALPAPIEKTISKTKGQPREPEVATFPPSREEMTKNQVTLVCLVTGFYPSDIAVEWESSGQPENNYNTDPPLLESDGSFALSSRLRVDKSRWQQGNIFSCSVMHEALHNRFTQKSLSLSPGK
For B2, in experiment [1], the “killing assay against Daudi cells, flow cytometry readout, EC50 (pM)” value stood at 126 pM.

B3: VH8-VL4 (scFv)
scFv-Fc chain: EVQLVESGGGLVQPGGSLRLSCAASGYTFTRYTMHWVRQAPGKGLEWIGYINPSRGYTYYADSVKGRFTLSTDKSKNTAYLQMNSLRAEDTAVYYCARYYDDHYCLDYWGQGTLVTVSSGGGGSGGGGSGGGGSGGGASDIQLTQSPSSLSASVGDRVTITCRASSSVSYVAWYQQKPGKAPKRWIYDTSKLYSGVPSRFSGSRSGTDYTLTISSLQPEDFATYYCQQWSSNPPTFGQGTKVEIK
notes: also called humanized OKT3 VH8-VL4 scFv-Fc fusion; hOKT3 VH8-VL4 scFv Fc
On to B3, for which the binding result in experiment [2] is listed as “binds”.

B4: VH8-VL8 (scFv)
scFv-Fc chain: EVQLVESGGGLVQPGGSLRLSCAASGYTFTRYTMHWVRQAPGKGLEWIGYINPSRGYTYYADSVKGRFTLSTDKSKNTAYLQMNSLRAEDTAVYYCARYYDDHYCLDYWGQGTLVTVSSGGGGSGGGGSGGGGSGGGASDIQLTQSPSSLSASVGDRVTITCRASSSVSYVAWYQQKPGKAPKRWIYDTSKLYSGVPSRFSGSGSGTDYTLTISSLQPEDFATYYCQQWSSNPPTFGQGTKVEIK
notes: also called humanized OKT3 VH8-VL8 scFv-Fc fusion; hOKT3 VH8-VL8 scFv Fc
With B4, in experiment [2], the binding result was “binds”.

B5: BEAT CD38-9G7best-fit/CD3(SP34-Kappa2) antibody (bispecific antibody)
heavy: QVTLKESGPTLVKPTQTLTLTCTFSGLSLSTSGKGVGWIRQPPGKALEWLAHIWWDDDKRYNPALKSRLTITKDTSKNQVVLTMTNMDPVDTATYYCARIELGRSYVMDYWGQGTLVTVSSASTKGPSVFPLAPSSKSTSGGTAALGCLVKDYFPEPVTVSWNSGALTSGVHTFPAVLQSSGLYSLSSVVTVPSSSLGTQTYICNVNHKPSNTKVDKKVEPKSCDKTHTCPPCPAPEAAGGPSVFLFPPKPKDTLMISRTPEVTCVVVDVSHEDPEVQFKWYVDGVEVHNAKTKPREEQYNSTFRVVSVLTVLHQDWLNGKEYKCKVSNKALPAPIEKTISKTKGQPREPAVYTLPPSREEMTKNQVKLVCLVTGFYPSDIAVEWESSGQPENNYYTTPPMLDSDGSFSLVSWLNVDKSRWQQGNIFSCSVMHEALHNRFTQKSLSLSPGK
light: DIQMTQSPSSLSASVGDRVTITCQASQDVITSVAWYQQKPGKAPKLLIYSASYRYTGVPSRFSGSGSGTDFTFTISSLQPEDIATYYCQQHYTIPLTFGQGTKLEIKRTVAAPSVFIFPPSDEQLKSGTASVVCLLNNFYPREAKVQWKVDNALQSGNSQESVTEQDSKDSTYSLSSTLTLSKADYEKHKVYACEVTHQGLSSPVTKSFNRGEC
chain: EVQLVESGGGLVQPGGSLRLSCAASGFTFNTYAMNWVRQAPGKGLEWVARIRSKYNNYATYYADSVKGRFTISRDDSKNTLYLQMNSLRAEDTAVYYCVRHGNFGNSYVSYFAYWGQGTTVTVSSGGGGSGGGGSGGGGSEIVVTQSPATLSVSPGERATLSCRSSTGAVTAANYANWVQEKPGQAFRGLIGGANKRAPGVPARFSGSLSGDEATLTISSLQSEDFAVYYCALFYSNLWVFGQGTKLEIKGGGGTDKTHTCPPCPAPEAAGGPSVFLFPPKPKDTLMISRTPEVTCVVVDVSHEDPEVKFNWYVDGVEVHNAKTKPREEQYNSTYRVVSVLTVLHQDWLNGKEYKCKVSNKALPAPIEKTISKAKGQPREPEVATFPPSRDELTKNQVTLVCLVTGFYPSDIAVEWESNGQPENNYKTDPPLLESQGSFALSSRLRVDKSRWQQGNVFSCSVMHEALHNHYTQKSLSLSPG
notes: Third chain is the anti-CD3 epsilon scFv BEAT heavy chain with humanized SP34 VH5/VL32; also called 9G7xSP34(GV2)
Turning to B5, the Kd (commonly a measure of binding affinity in units of concentration) in experiment [3] came to 18 nM.

B6: chimeric 9G7 antibody (antibody, human IgG1, kappa, V domains shown)
VH: QVTLKESGPGILQPSQTLSLTCSFSGLSLSTSGKGVGWIRQPSGKGLEWLAHIWWDDDKRYNPALKSRLTISKDTSSNQVFLKIASVDTADTATYYCARIELGRSYVMDYWGQGTTVTVSS
VL: DIVMTQSHKFMSTSVGDRVSISCKASQDVITSVAWFQQKPGQSPKLLIYSASYRYTGVPDRFTGSGSGTDFTFTISSVQAEDLAVYYCQQHYTIPLTFGAGTKLELKR
B6 gave a Kd in experiment [4] of 1 nM.

B7: BTB homodimer construct lacking the VH3 based scFv (other)
chain: DKTHTCPPCPAPEAAGGPSVFLFPPKPKDTLMISRTPEVTCVVVDVSHEDPEVKFNWYVDGVEVHNAKTKPREEQYNSTYRVVSVLTVLHQDWLNGKEYKCKVSNKALPAPIEKTISKAKGQPREPEVATFPPSRDELTKNQVTLVCLVTGFYPSDIAVEWESNGQPENNYKTDPPLLESQGSFALSSRLRVDKSRWQQGNVFSCSVMHEALHNHYTQKSLSLSPGK
notes: Human IgG1 Fc region with the BTB CH3 domain carrying D401Q
Consider B7, for which the binding result in experiment [5] and in experiment [6] was “no binding” throughout.

B8: SAR650984 antibody (antibody, human IgG1, kappa, V domains shown)
VH: QVQLVQSGAEVAKPGTSVKLSCKASGYTFTDYWMQWVKQRPGQGLEWIGTIYPGDGDTGYAQKFQGKATLTADKSSKTVYMHLSSLASEDSAVYYCARGDYYGSNSLDYWGQGTSVTVSS
VL: DIVMTQSHLSMSTSLGDPVSITCKASQDVSTVVAWYQQKPGQSPRRLIYSASYRYIGVPDRFTGSGAGTDFTFTISSVQAEDLAVYYCQQHYSPPYTFGGGTKLEIKR
notes: also called humanized SAR650984 antibody
For the molecule B8, the binding result was “no binding (tested: not printed)” in experiment [7] and “binds” in experiment [8].
